From IntAct's records for PubMed 31515488

B1: Protein DBF4 homolog B (Homo sapiens), Q8NFT6 (parent)
chain: MSEPGKGDDCLELESSMAESRLRAPDLGVSRCLGKCQKNSPGARKHPFSGKSFYLDLPAGKNLQFLTGAIQQLGGVIEGFLSKEVSYIVSSRREVKAESSGKSHRGCPSPSPSEVRVETSAMVDPKGSHPRPSRKPVDSVPLSRGKELLQKAIRNQGSISGGGSGGSSSLLTNARSWGVRILHVDEMMMHVQQLSLASLCVKKQQPKKPEGTCPAAESRTRKVARLKAPFLKIEDESRKFRPFHHQFKSFPEISFLGPKDASPFEAPTTLGSMHHTRESKDGEPSPRSAAHTMPRRKKGYCECCQEAFEELHVHLQSAQHRSFALEAHLYAEVDRIIAQLSHSFADIPFQAGLPRWSGSPASDCDPLCPETLHPHQPSHPRAASPRIRKEDSCQASVTQGRAAGQQRWTESLDGVMGPPASHTCVSATTLLPALPKGSREQGCLCPCPASFTQSHLVTSLALLPGEWSPAEDMPLHPSQENSFAPADIPVKGPLLFPEARPWLMSARCWVRPFPFVTWGCLIPHDTTPLHEEVSPCPCLRLGYLYLLLTQSLWCRVRVPSLSTAGPIPRTSHPCTLAFPSYLNDHDLGHLCQAKPQGWNTPQPFLHCGFLAVDSG
partner: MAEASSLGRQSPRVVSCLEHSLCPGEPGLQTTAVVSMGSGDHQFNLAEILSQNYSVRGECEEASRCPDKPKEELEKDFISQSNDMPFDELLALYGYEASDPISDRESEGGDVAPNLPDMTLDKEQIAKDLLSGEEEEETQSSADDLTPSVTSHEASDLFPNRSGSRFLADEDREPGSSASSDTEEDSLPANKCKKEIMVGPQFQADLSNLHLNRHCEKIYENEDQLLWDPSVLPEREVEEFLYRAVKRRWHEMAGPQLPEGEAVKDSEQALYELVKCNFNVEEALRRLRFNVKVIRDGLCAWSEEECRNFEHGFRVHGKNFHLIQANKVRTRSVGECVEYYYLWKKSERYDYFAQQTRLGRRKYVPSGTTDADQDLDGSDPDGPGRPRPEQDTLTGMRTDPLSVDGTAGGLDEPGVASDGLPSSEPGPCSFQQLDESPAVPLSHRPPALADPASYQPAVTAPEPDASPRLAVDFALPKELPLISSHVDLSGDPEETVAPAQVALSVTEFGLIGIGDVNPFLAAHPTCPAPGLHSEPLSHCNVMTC
B2: "N-acyl-aromatic-L-amino acid amidohydrolase (carboxylate-forming)" (Homo sapiens), Q96HD9 (parent)
chain: MCSLPVPREPLRRVAVTGGTHGNEMSGVYLARHWLHAPAELQRASFSAVPVLANPAATSGCRRYVDHDLNRTFTSSFLNSRPTPDDPYEVTRARELNQLLGPKASGQAFDFVLDLHNTTANMGTCLIAKSSHEVFAMHLCRHLQLQYPELSCQVFLYQRSGEESYNLDSVAKNGLGLELGPQPQGVLRADIFSRMRTLVATVLDFIELFNQGTAFPAFEMEAYRPVGVVDFPRTEAGHLAGTVHPQLQDRDFQPLQPGAPIFQMFSGEDLLYEGESTVYPVFINEAAYYEKGVAFVQTEKFTFTVPAMPALTPAPSPAS
partner: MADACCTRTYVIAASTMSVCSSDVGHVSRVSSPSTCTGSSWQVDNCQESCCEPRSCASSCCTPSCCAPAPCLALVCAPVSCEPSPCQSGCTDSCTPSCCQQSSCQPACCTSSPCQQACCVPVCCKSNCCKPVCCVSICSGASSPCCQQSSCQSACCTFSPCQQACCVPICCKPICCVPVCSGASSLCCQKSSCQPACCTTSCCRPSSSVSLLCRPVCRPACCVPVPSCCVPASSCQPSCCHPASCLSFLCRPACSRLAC
B3: Microtubule-associated tumor suppressor candidate 2 (Homo sapiens), Q5JR59-3 (parent)
chain: MGHCCCKPYNCLQCLDKTNESALVKEKELSIELANIRDEVAFHTAKCEKLQKEKEELERRFEDEVKRLGWQQQAELQELEERLQLQFEAEMARLQEEHGDQLLSIRCQHQEQVEDLTASHDAALLEMENNHTVAITILQDDHDHKVQELMSTHELEKKELEENFEKLRLSLQDQVDTLTFQSQSLRDRARRFEEALRKNTEEQLEIALAPYQHLEEDMKSLKQVLEMKNQQIHEQEKKILELEKLAEKNIILEEKIQVLQQQNEDLKARIDQNTVVTRQLSEENANLQEYVEKETQEKKRLSRTNEELLWKLQTGDPTSPIKLSPTSPVYRGSSSGPSSPARVSTTPR
partner: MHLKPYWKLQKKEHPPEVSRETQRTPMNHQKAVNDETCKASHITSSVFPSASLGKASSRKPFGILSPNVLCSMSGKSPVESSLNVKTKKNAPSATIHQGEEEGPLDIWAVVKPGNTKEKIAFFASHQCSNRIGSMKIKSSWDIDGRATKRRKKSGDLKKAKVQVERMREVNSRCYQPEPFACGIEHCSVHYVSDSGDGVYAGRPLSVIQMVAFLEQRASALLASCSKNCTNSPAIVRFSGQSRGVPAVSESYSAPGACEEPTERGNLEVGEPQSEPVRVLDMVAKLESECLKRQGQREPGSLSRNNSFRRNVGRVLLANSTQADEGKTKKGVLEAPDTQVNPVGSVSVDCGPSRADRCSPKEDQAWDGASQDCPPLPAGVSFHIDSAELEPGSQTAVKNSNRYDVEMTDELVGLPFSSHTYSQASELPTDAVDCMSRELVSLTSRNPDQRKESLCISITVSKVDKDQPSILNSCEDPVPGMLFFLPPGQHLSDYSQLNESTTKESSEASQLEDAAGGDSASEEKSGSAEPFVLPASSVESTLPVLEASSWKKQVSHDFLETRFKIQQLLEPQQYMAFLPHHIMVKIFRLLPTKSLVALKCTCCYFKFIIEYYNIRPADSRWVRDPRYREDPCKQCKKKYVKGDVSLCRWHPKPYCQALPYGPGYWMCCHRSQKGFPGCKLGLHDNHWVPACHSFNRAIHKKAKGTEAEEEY
B4: Proteasome subunit beta type-1 (Homo sapiens), P20618 (parent)
chain: MLSSTAMYSAPGRDLGMEPHRAAGPLQLRFSPYVFNGGTILAIAGEDFAIVASDTRLSEGFSIHTRDSPKCYKLTDKTVIGCSGFHGDCLTLTKIIEARLKMYKHSNNKAMTTGAIAAMLSTILYSRRFFPYYVYNIIGGLDEEGKGAVYSFDPVGSYQRDSFKAGGSASAMLQPLLDNQVGFKNMQNVEHVPLSLDRAMRLVKDVFISAAERDVYTGDALRICIVTKEGIREETVSLRKD
partner: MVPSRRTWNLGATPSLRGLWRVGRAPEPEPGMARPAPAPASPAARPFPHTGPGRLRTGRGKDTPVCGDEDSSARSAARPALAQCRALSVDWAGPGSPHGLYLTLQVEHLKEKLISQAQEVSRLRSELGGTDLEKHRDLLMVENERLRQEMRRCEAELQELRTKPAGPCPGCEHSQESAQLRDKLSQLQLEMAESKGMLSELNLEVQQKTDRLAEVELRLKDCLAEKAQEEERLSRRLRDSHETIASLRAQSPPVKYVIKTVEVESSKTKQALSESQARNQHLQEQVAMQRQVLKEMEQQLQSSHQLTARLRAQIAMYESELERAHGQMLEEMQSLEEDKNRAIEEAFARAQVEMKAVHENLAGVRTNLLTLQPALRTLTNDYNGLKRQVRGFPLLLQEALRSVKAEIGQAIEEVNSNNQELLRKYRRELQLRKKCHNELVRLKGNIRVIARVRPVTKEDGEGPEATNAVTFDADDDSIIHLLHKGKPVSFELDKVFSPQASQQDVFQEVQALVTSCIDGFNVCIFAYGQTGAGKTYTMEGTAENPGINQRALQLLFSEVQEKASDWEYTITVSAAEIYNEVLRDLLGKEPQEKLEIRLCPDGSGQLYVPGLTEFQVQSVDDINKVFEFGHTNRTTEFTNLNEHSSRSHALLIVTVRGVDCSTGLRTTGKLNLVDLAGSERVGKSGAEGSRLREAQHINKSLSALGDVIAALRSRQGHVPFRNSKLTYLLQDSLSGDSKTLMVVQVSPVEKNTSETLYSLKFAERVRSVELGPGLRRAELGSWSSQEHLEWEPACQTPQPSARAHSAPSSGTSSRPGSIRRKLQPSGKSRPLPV
B5: Syntaxin-3 (Homo sapiens), Q13277 (parent)
chain: MKDRLEQLKAKQLTQDDDTDAVEIAIDNTAFMDEFFSEIEETRLNIDKISEHVEEAKKLYSIILSAPIPEPKTKDDLEQLTTEIKKRANNVRNKLKSMEKHIEEDEVRSSADLRIRKSQHSVLSRKFVEVMTKYNEAQVDFRERSKGRIQRQLEITGKKTTDEELEEMLESGNPAIFTSGIIDSQISKQALSEIEGRHKDIVRLESSIKELHDMFMDIAMLVENQGEMLDNIELNVMHTVDHVEKARDETKKAVKYQSQARKKLIIIIVLVVVLLGILALIIGLSVGLN
B6: Sodium channel modifier 1 (Homo sapiens), Q9BWG6 (parent)
chain: MSFKREGDDWSQLNVLKKRRVGDLLASYIPEDEALMLRDGRFACAICPHRPVLDTLAMLTAHRAGKKHLSSLQLFYGKKQPGKERKQNPKHQNELRREETKAEAPLLTQTRLITQSALHRAPHYNSCCRRKYRPEAPGPSVSLSPMPPSEVKLQSGKISREPEPAAGPQAEESATVSAPAPMSPTRRRALDHYLTLRSSGWIPDGRGRWVKDENVEFDSDEEEPPDLPLD
B7: Isoform 1 of Mothers against decapentaplegic homolog 3 (Homo sapiens), P84022-1 (parent)
chain: MSSILPFTPPIVKRLLGWKKGEQNGQEEKWCEKAVKSLVKKLKKTGQLDELEKAITTQNVNTKCITIPRSLDGRLQVSHRKGLPHVIYCRLWRWPDLHSHHELRAMELCEFAFNMKKDEVCVNPYHYQRVETPVLPPVLVPRHTEIPAEFPPLDDYSHSIPENTNFPAGIEPQSNIPETPPPGYLSEDGETSDHQMNHSMDAGSPNLSPNPMSPAHNNLDLQPVTYCEPAFWCSISYYELNQRVGETFHASQPSMTVDGFTDPSNSERFCLGLLSNVNRNAAVELTRRHIGRGVRLYYIGGEVFAECLSDSAIFVQSPNCNQRYGWHPATVCKIPPGCNLKIFNNQEFAALLAQSVNQGFEAVYQLTRMCTIRMSFVKGWGAEYRRQTVTSTPCWIELHLNGPLQWLDKVLTQMGSPSIRCSSVS
partner: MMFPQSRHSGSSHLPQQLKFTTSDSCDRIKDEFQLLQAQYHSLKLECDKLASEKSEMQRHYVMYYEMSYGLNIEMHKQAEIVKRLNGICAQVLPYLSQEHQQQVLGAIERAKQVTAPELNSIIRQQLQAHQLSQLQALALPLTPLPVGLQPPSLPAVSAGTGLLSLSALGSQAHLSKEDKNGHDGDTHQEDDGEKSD

Variants of: B1
Settings: with mier2_human MIER2, Q8N344

Row | effect of a mutation on the interaction | Variant
1 | with no effect | L199S

Variants of: B2
Settings: with kr108_human KRTAP10-8, P60410

Row | effect of a mutation on the interaction | Variant
2 | with no effect | R8Q

Variants of: B3
Settings: with fbx34_human FBXO34, Q9NWN3

Row | effect of a mutation on the interaction | Variant
3 | with no effect | A89V

Variants of: B4
Settings: with kifc3_human KIFC3, Q9BVG8

Row | effect of a mutation on the interaction | Variant
4 | with no effect | P11A

Variants of: B5
Settings: with stx4_human STX4, Q12846
Sequence of stx4_human STX4, Q12846 (Q12846 whole entry): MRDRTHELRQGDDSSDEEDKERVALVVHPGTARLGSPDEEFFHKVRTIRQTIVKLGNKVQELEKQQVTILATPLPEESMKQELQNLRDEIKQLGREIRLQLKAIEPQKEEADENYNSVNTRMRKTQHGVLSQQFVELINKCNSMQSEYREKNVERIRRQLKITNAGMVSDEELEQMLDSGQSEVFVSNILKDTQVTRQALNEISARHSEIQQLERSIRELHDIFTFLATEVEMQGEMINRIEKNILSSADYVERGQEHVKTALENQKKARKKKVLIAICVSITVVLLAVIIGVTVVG

Row | effect of a mutation on the interaction | Variant
5 | with no effect | G276S
6 | disrupting interaction strength | H198Y

Variants of: B6
Settings: with hm20a_human HMG20A

Row | effect of a mutation on the interaction | Variant
7 | with no effect | R206P

Variants of: B6
Settings: with trim1_human MID2, Q9UJV3
Sequence of trim1_human MID2, Q9UJV3 (Q9UJV3 whole entry): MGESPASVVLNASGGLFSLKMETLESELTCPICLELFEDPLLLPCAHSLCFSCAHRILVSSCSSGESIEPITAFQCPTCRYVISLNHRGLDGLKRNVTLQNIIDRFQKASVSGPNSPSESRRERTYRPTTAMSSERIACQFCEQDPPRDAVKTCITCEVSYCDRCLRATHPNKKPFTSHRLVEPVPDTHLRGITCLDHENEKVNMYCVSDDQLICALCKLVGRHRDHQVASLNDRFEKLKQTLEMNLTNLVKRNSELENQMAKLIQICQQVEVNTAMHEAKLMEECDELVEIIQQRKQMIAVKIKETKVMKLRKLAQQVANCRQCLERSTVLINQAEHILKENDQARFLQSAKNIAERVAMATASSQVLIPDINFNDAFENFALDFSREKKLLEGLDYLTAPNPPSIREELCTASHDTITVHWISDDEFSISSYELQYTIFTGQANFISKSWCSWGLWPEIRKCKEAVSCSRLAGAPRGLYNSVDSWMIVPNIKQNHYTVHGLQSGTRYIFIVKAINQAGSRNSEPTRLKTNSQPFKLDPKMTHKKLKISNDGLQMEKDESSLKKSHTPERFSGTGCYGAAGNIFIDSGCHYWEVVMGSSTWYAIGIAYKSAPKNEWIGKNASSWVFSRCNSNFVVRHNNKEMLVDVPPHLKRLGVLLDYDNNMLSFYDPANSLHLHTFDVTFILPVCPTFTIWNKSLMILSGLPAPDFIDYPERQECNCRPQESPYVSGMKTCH

Row | effect of a mutation on the interaction | Variant
8 | with no effect | R206P

Variants of: B6
Settings: with pls1_human PLSCR1, O15162
Sequence of pls1_human PLSCR1, O15162 (O15162 whole entry): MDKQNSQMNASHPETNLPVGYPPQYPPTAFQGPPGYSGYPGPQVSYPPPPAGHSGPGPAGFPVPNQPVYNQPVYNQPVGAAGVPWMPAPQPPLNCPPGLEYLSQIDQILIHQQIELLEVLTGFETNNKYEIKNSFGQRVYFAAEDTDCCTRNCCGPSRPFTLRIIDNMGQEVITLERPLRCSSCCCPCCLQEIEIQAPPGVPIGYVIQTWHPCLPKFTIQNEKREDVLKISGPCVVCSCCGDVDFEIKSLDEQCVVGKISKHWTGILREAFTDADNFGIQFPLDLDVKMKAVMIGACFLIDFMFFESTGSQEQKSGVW

Row | effect of a mutation on the interaction | Variant
9 | with no effect | R206P

Variants of: B6
Settings: with inca1_human INCA1, Q0VD86
Sequence of inca1_human INCA1, Q0VD86 (Q0VD86 whole entry): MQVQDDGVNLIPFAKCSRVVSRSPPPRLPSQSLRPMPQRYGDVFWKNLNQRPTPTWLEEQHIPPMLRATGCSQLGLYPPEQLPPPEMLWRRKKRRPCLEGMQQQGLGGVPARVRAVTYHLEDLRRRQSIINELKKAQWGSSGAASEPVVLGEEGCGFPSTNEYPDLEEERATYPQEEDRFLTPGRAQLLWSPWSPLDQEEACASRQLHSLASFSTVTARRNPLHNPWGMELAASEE

Row | effect of a mutation on the interaction | Variant
10 | with no effect | R206P

Variants of: B7
Settings: with tle5_human TLE5, Q08117

Row | effect of a mutation on the interaction | Variant
11 | disrupting interaction strength | P393L
